What is called Kd is the free concentration of one partner at which half of the binding sites on the other are occupied at equilibrium, for simple one-to-one binding. The EC50 (read off the curve) is the concentration at which the effect is half-maximal.

Ends that are not written are not given here.

1 molecule from patent US20150065436A1 (UNIVERSITY OF SOUTHERN CALIFORNIA, published 2015) can be followed below.

Test [1] addresses T1, p300-CH1 (cysteine-histidine rich 1 domain of human coactivator protein p300, amino acid residues 323-423) (human, UniProt Q09472 323-423, uniformly 15N-labelled; folded with 3 equivalents of Zn2+).
T1 construct: range 323-423; Expressed in E. coli from pGEX-4T-2 as a GST fusion; also called p300 CH1 domain; 15N-labeled p300-CH1
In words: fluorescence polarization, p300-CH1 titrated into 15 nM fluorescein-labeled HIF peptide. (In fluorescence polarisation assays a small probe gives low polarisation when free and higher when bound to something large.)

Test [2] deals with T1, p300-CH1 (cysteine-histidine rich 1 …). Nature of the test: fluorescence polarization, p300-CH1 titrated into 15 nM fluorescein-labeled HIF-1α C-TAD786-826.

T1 sequence (Q09472 323-423 limits assumed): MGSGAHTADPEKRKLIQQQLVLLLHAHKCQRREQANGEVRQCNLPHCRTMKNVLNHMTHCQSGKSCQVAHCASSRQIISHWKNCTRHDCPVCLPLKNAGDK

B1: fluorescein-labeled HIF-1α C-TAD786-826 (peptide)
peptide: SMDESGLPQLTSYDCEVNAPIQGSRNLLQGEELLRALDQVN
modifications: also: fluorescein label, site shown only in structure
notes: Fluorescent probe of the polarization assay; also called Flu-HIF C-TAD
As to B1, the dissociation constant Kd in test [1] was determined as 31 nM. Further, in test [2], the “EC50 (read off the curve)” value is roughly 40 nM and the Kd was 31.9 nM.
